Experimental data published in US20220002407A1.

B1: bispecific antibody AB23P10 (anti-CD19×CD3) (bispecific antibody)
chain: QVQLQESGPALVKPTQTLTLTCTFSGFSLSTSGMGVGWIRQPPGKALEWLAHIWWDDDKRYNPALKSRLTISKDTSKNQVFLTMTNMDPVDTATYYCARMELWSYYFDYWGQGTLVTVSSGGGGSGGGGSGGGGSENVLTQSPATLSVTPGEKATLSCSASSSVSYMHWYQQKPGQAPRLLIYDTSKLASGIPARFSGSGSGTDHTLTISSLEAEDVAVYYCFQGSVYPFTFGQGTKLEIKGGGGGGSGGGGSGGGGSSSSSKAPPPSEVQLLESGGGLVQPGGSLKLSCAASGFTFNTYAMNWVRQAPGKGLEWVARIRSKYNNYATYYADSVKDRFTISRDDSKNTAYLQMNNLKTEDTAVYYCVRHGNFGNSYVSWFAYWGQGTLVTVSSGGGGSGGGGSGGGGSELVVTQEPSLTVSPGGTVTLTCRSSTGAVTTSNYANWVQQKPGQAPRGLIGGTNKRAPGTPARFSGSLLGGKAALTLSGVQPEDEAEYYCALWYSNLWVFGGGTKLTVLDKTHTCPPCPAPEAAGGPSVFLFPPKPKDQLMISRTPEVTCVVVDVSHEDPEVKFNWYVDGVEVHNAKTKPREEQYASTYRVVSVLTVLHQDWLNGKEYKCKVSNKALPASIEKTISKAKGQPREPQVYTLPPSRDELTKNQVSLTCLVKGFYPSDIAVEWESNGQPENNYKTTPPVLDSDGSFFLYSKLTVDKSRWQQGNVFSCSVLHEALHNHYTQKSLSLSPG
modifications: Homodimer: two identical copies of this chain, joined by covalent (hinge disulfide) bonds; one copy is given.
B2: bispecific antibody AB23P8 (anti-CD19×CD3) (bispecific antibody)
chain: QVTLRESGPALVKPTQTLTLTCTFSGFSLSTSGMGVGWIRQPPGKALEWLAHIWWDDDKRYNPALKSRLTISKDTSKNQVFLTMTNMDPVDTATYYCARMELWSYYFDYWGQGTTVTVSSGGGGSGGGGSGGGGSENVLTQSPATLSVTPGEKATITCRASQSVSYMHWYQQKPGQAPRLLIYDASNRASGVPSRFSGSGSGTDHTLTISSLEAEDAATYYCFQGSVYPFTFGQGTKLEIKGGGGGGSGGGGSGGGGSSSSSKAPPPSEVQLLESGGGLVQPGGSLKLSCAASGFTFNTYAMNWVRQAPGKGLEWVARIRSKYNNYATYYADSVKDRFTISRDDSKNTAYLQMNNLKTEDTAVYYCVRHGNFGNSYVSWFAYWGQGTLVTVSSGGGGSGGGGSGGGGSELVVTQEPSLTVSPGGTVTLTCRSSTGAVTTSNYANWVQQKPGQAPRGLIGGTNKRAPGTPARFSGSLLGGKAALTLSGVQPEDEAEYYCALWYSNLWVFGGGTKLTVLDKTHTCPPCPAPEAAGGPSVFLFPPKPKDQLMISRTPEVTCVVVDVSHEDPEVKFNWYVDGVEVHNAKTKPREEQYASTYRVVSVLTVLHQDWLNGKEYKCKVSNKALPASIEKTISKAKGQPREPQVYTLPPSRDELTKNQVSLTCLVKGFYPSDIAVEWESNGQPENNYKTTPPVLDSDGSFFLYSKLTVDKSRWQQGNVFSCSVLHEALHNHYTQKSLSLSPG
modifications: Homodimer: two identical copies of this chain, joined by covalent (hinge disulfide) bonds; one copy is given.
B3: bispecific antibody AB23P9 (anti-CD19×CD3) (bispecific antibody)
chain: QVQLQESGPGLVKPTQTLSLTCTVSGGSISTSGMGVGWIRQHPGKGLEWIGHIWWDDDKRYNPALKSRVTISVDTSKNQVFLKLSSVTAADTAVYYCARMELWSYYFDYWGQGTTVTVSSGGGGSGGGGSGGGGSEIVLTQSPATLSLSPGERATITCRASQSVSYMHWYQQKPGQAPRLLIYDASNRASGVPSRFSGSGSGTDFTLTISSLEPEDAATYYCFQGSVYPFTFGQGTKLEIKGGGGGGSGGGGSGGGGSSSSSKAPPPSEVQLLESGGGLVQPGGSLKLSCAASGFTFNTYAMNWVRQAPGKGLEWVARIRSKYNNYATYYADSVKDRFTISRDDSKNTAYLQMNNLKTEDTAVYYCVRHGNFGNSYVSWFAYWGQGTLVTVSSGGGGSGGGGSGGGGSELVVTQEPSLTVSPGGTVTLTCRSSTGAVTTSNYANWVQQKPGQAPRGLIGGTNKRAPGTPARFSGSLLGGKAALTLSGVQPEDEAEYYCALWYSNLWVFGGGTKLTVLDKTHTCPPCPAPEAAGGPSVFLFPPKPKDQLMISRTPEVTCVVVDVSHEDPEVKFNWYVDGVEVHNAKTKPREEQYASTYRVVSVLTVLHQDWLNGKEYKCKVSNKALPASIEKTISKAKGQPREPQVYTLPPSRDELTKNQVSLTCLVKGFYPSDIAVEWESNGQPENNYKTTPPVLDSDGSFFLYSKLTVDKSRWQQGNVFSCSVLHEALHNHYTQKSLSLSPG
modifications: Homodimer: two identical copies of this chain, joined by covalent (hinge disulfide) bonds; one copy is given.
B4: bispecific antibody AB23P7 (anti-CD19×CD3) (bispecific antibody)
chain: QVQLQESGPGLVKPSQTLSLTCTVSGGSISTSGMGVGWIRQHPGKGLEWIGHIWWDDDKRYNPALKSRVTISVDTSKNQFSLKLSSVTAADTAVYYCARMELWSYYFDYWGQGTLVTVSSGGGGSGGGGSGGGGSEIVLTQSPATLSLSPGERATLSCSASSSVSYMHWYQQKPGQAPRLLIYDTSKLASGIPARFSGSGSGTDFTLTISSLEPEDVAVYYCFQGSVYPFTFGQGTKLEIKGGGGGGSGGGGSGGGGSSSSSKAPPPSEVQLLESGGGLVQPGGSLKLSCAASGFTFNTYAMNWVRQAPGKGLEWVARIRSKYNNYATYYADSVKDRFTISRDDSKNTAYLQMNNLKTEDTAVYYCVRHGNFGNSYVSWFAYWGQGTLVTVSSGGGGSGGGGSGGGGSELVVTQEPSLTVSPGGTVTLTCRSSTGAVTTSNYANWVQQKPGQAPRGLIGGTNKRAPGTPARFSGSLLGGKAALTLSGVQPEDEAEYYCALWYSNLWVFGGGTKLTVLDKTHTCPPCPAPEAAGGPSVFLFPPKPKDQLMISRTPEVTCVVVDVSHEDPEVKFNWYVDGVEVHNAKTKPREEQYASTYRVVSVLTVLHQDWLNGKEYKCKVSNKALPASIEKTISKAKGQPREPQVYTLPPSRDELTKNQVSLTCLVKGFYPSDIAVEWESNGQPENNYKTTPPVLDSDGSFFLYSKLTVDKSRWQQGNVFSCSVLHEALHNHYTQKSLSLSPG
modifications: Homodimer: two identical copies of this chain, joined by covalent (hinge disulfide) bonds; one copy is given.

Experiments:
[1] = target: CD19 on CD19-positive human tumor cells (Raji, Raji-Luc, NALM6, Reh) (human) (UniProt P15391); assay: cell-based or functional assay
Chain of CD19 on CD19-positive human tumor cells (Raji, Raji-Luc, NALM6, Reh) (human) (P15391 20-556): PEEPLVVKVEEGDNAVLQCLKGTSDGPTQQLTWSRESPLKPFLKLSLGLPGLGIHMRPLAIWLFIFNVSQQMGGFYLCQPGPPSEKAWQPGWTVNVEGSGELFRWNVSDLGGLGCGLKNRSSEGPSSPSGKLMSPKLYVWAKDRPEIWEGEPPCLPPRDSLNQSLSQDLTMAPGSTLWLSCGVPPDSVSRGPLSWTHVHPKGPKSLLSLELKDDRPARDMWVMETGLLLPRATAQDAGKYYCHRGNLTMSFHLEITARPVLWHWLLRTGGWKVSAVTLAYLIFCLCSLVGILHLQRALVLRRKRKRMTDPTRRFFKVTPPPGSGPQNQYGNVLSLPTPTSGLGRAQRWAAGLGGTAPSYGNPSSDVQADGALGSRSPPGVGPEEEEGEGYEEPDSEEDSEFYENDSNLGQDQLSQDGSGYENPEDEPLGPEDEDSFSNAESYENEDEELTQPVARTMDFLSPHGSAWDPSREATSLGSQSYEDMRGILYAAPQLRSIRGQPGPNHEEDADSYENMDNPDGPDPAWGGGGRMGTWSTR

[2] = target: CD3 on the membrane of CIK cells (T cells) of a cynomolgus monkey (cynomolgus monkey) (UniProt Q95LI5); assay: flow cytometry on cynomolgus monkey CIK (T) cells
Chain of CD3 on the membrane of CIK cells (T cells) of a cynomolgus monkey (cynomolgus monkey) (Q95LI5 22-198, chain 1 of 3): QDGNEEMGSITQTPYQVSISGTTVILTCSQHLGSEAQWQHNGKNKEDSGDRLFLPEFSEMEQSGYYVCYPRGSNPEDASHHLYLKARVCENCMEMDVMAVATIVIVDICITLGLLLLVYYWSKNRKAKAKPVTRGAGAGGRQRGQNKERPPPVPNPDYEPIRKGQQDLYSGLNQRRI
Chain of CD3 on the membrane of CIK cells (T cells) of a cynomolgus monkey (cynomolgus monkey) (Q95LI8 22-171, chain 2 of 3, further chain): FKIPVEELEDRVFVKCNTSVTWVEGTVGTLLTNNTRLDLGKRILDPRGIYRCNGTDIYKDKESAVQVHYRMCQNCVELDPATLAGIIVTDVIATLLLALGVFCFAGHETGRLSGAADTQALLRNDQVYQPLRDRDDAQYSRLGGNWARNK
Chain of CD3 on the membrane of CIK cells (T cells) of a cynomolgus monkey (cynomolgus monkey) (Q95LI7 23-181, chain 3 of 3, further chain): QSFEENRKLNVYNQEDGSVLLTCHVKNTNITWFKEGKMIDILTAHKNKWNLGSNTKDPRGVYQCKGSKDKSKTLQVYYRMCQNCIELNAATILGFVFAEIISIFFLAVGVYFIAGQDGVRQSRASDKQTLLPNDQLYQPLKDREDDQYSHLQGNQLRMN

[3] = target: CD3 on human T cells (expanded CIK effector cells) (human) (UniProt P07766); assay: flow cytometry on expanded CD3-positive human T cells (CIK)
Chain of CD3 on human T cells (expanded CIK effector cells) (human) (P07766 23-207, chain 1 of 3): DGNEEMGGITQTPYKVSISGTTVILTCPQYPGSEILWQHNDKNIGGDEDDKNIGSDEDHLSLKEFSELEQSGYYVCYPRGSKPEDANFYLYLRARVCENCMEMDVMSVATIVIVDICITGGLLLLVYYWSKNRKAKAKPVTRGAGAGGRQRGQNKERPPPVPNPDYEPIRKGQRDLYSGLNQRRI
Chain of CD3 on human T cells (expanded CIK effector cells) (human) (P04234 22-171, chain 2 of 3, further chain): as the sequence (Q95LI8 22-171, chain 2 of 3, further chain) above, with V5I, K15N, V20I, T32S, N33D, N34I, A64T, N74S, L83V, R141H counted along it
Chain of CD3 on human T cells (expanded CIK effector cells) (human) (P09693 23-182, chain 3 of 3, further chain): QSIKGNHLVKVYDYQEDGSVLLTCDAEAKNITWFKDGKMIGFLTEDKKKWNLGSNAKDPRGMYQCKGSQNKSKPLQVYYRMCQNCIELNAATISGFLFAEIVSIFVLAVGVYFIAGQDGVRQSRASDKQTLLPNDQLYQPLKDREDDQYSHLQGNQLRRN

[4] = target: CD19 on CD19-positive human tumor cells (Raji, Raji-Luc, NALM6, Reh) (human) (UniProt P15391); assay: flow cytometry on CD19-positive Raji cells, AF647 goat anti-human IgG detection

| Binder | EC50 of activation of NFAT-RE luciferase reporter Jurkat T cells in the presence of Raji target cells [1] [pM] | EC50 to mediate CIK to kill different tumor cells (NALM6) [1] [pM] | EC50 to mediate CIK to kill different tumor cells (Reh) [1] [pM] | EC50 to mediate CIK to kill tumor cells (Raji-LUC) [1] [pM] | EC50 to mediate CIK to kill tumor cells (Raji-LUC, second row without label) [1] [pM] | EC50 to mediate PBMCs to kill tumor cells (Raji-LUC) [1] [pM] | EC50 to mediate PBMCs to kill tumor cells (Raji-LUC, second row without label) [1] [pM] | EC50 to mediate PBMCs to kill tumor cells (Raji-LUC, third row without label) [1] [pM] | EC50 [2] [pM] | EC50 [3] [pM] | EC50 [4] [pM] |
| --- | --- | --- | --- | --- | --- | --- | --- | --- | --- | --- | --- |
| B1 | 709 | 4.4 | 1.64 | 0.128 | 0.483 | 0.946 | 1.25 | 4.18 | 5500 | 32400 | 2680 |
| B2 | 1120 |  |  | 0.586 |  | 1.02 |  |  |  | 16700 | 1920 |
| B3 | 853 |  |  | 0.148 |  | 1.01 |  |  |  | 49500 | 2600 |
| B4 | 1080 |  | 1.71 | 0.699 | 0.202 | 1.23 | 1.25 |  | 5500 | 15700 | 1390 |
